Data on 30 molecules can be found in patent publication US20030148956A1 (PROCTER AND GAMBLE, published 2003).

T1: corticotropin releasing factor 2 receptor
T1 sequence (Q13324 whole entry, species assumed, looked up): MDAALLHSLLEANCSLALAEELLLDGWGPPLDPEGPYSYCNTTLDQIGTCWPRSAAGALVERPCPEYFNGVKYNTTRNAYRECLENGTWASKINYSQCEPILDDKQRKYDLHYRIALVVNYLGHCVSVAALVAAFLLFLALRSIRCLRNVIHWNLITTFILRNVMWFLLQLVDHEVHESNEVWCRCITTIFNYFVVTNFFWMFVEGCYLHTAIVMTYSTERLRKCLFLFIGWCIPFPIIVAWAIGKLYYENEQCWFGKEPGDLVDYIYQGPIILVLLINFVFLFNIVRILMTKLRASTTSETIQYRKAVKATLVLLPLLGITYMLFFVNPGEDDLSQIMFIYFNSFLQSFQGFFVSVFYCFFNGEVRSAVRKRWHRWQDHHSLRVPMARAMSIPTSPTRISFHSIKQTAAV

T2: corticotropin releasing factor 2 receptor
T2 sequence (Q13324 whole entry, species assumed, looked up): T1 sequence (Q13324 whole entry, species assumed, looked up)

B1: human corticotropin releasing factor fragment (peptide)
peptide: SEEPPISLDLTFHLLREVLEMARAEQLAQQAHSNRKLMEII
modifications: ends and bridges not checked
B2: human urocortin III fragment (peptide)
peptide: TKFTLSLDVPTNIMNLLFNIAKAKNLRAQAAANAHLMAQI
modifications: ends and bridges not checked
B3: ovine corticotropin releasing factor fragment (peptide)
peptide: SQEPPISLDLTFHLLREVLEMTKADQLAQQAHSNRKLLDIA
modifications: ends and bridges not checked
B4: human urocortin I fragment (peptide)
peptide: DNPSLSIDLTFHLLRTLLELARTQSQRERAEQNRIIFDSV
modifications: ends and bridges not checked
B5: SEQ ID NO 238 (peptide)
peptide: ZGPPISIDLPLHLLRKMIEIEKQEKEKQQATTNARLLDTV
modifications: C-terminal amide
B6: SEQ ID NO 243 (peptide)
peptide: B5 peptide with H12Y, T39R
modifications: C-terminal amide
B7: SEQ ID NO 239 (peptide)
peptide: B5 peptide with T39R
modifications: C-terminal amide
B8: SEQ ID NO 247 (peptide)
peptide: B5 peptide with H12Q, R15E, T39R
modifications: C-terminal amide
B9: SEQ ID NO 246 (peptide)
peptide: B5 peptide with H12Q
modifications: C-terminal amide
B10: SEQ ID NO 230 (peptide)
peptide: ZGPPISIDLPFYLLRKMIEIEKQEKEKQQAANNALLLDTI
modifications: C-terminal amide
B11: SEQ ID NO 250 (peptide)
peptide: B10 peptide with Y12Q, A34R, D38A
modifications: C-terminal amide
B12: SEQ ID NO 255 (peptide)
peptide: B10 peptide with Y12Q, K16I, M17L, A34R
modifications: C-terminal amide
B13: SEQ ID NO 253 (peptide)
peptide: B10 peptide with L9V, F11T, A34R
modifications: C-terminal amide
B14: SEQ ID NO 235 (peptide)
peptide: B10 peptide with F11L, Y12E
modifications: C-terminal amide
B15: SEQ ID NO 248 (peptide)
peptide: B10 peptide with F11L, Y12Q
modifications: C-terminal amide
B16: SEQ ID NO 242 (peptide)
peptide: B5 peptide with H12Y
modifications: C-terminal amide
B17: SEQ ID NO 232 (peptide)
peptide: B10 peptide with F11T
modifications: C-terminal amide
B18: SEQ ID NO 252 (peptide)
peptide: B10 peptide with F11T, K16I, M17L, A34R
modifications: C-terminal amide
B19: SEQ ID NO 233 (peptide)
peptide: B10 peptide with F11T, D38A
modifications: C-terminal amide
B20: SEQ ID NO 240 (peptide)
peptide: B10 peptide with F11L, Y12H
modifications: C-terminal amide
B21: SEQ ID NO 231 (peptide)
peptide: B10 peptide with D38A
modifications: C-terminal amide
B22: SEQ ID NO 237 (peptide)
peptide: B10 peptide with F11I, D38A
modifications: C-terminal amide
B23: SEQ ID NO 245 (peptide)
peptide: B10 peptide with F11L, D38A
modifications: C-terminal amide
B24: SEQ ID NO 244 (peptide)
peptide: B10 peptide with F11L
modifications: C-terminal amide
B25: SEQ ID NO 254 (peptide)
peptide: B10 peptide with L9V, F11I, Y12G, A34R
modifications: C-terminal amide
B26: SEQ ID NO 241 (peptide)
peptide: B10 peptide with F11L, Y12H, D38A
modifications: C-terminal amide
B27: SEQ ID NO 249 (peptide)
peptide: B10 peptide with F11L, Y12Q, R15E, D38A
modifications: C-terminal amide
B28: SEQ ID NO 234 (peptide)
peptide: B10 peptide with F11L, Y12E, D38A
modifications: C-terminal amide
B29: SEQ ID NO 251 (peptide)
peptide: B10 peptide with Y12Q
modifications: C-terminal amide
B30: SEQ ID NO 236 (peptide)
peptide: B10 peptide with F11I
modifications: C-terminal amide

Residue numbers refer to the chain shown, from its start. Ends that are not written are not given here.

One assay has as its target corticotropin releasing factor 1 receptor. In words: cell-based or functional assay.
For B1, the “CRF1R EC50” value was 19.9 nM and the “CRF1R Emax %” value is 87%.

For B2, the “CRF1R EC50” value is greater than 1000 nM and the “CRF1R Emax %” value worked out at 10.2%.

In the case of B3, the “CRF1R EC50” value came out at 27.4 nM and the “CRF1R Emax %” value is 98%.

On to B4, for which the “CRF1R EC50” value amounted to 9 nM and the “CRF1R Emax %” value turned out to be 100%.

A further assay deals with T1, corticotropin releasing factor 2 …. Briefly: cell-based or functional assay.
As for B1, the “CRF2R EC50” value stood at 49.2 nM and the “CRF2R Emax %” value turned out to be 100%.

For the molecule B2, the “CRF2R EC50” value is greater than 100 nM and the “CRF2R Emax %” value was found to be 60%.

For the molecule B3, the “CRF2R EC50” value is greater than 100 nM and the “CRF2R Emax %” value was found to be 33%.

Consider B4, for which the “CRF2R EC50” value came to 3.52 nM and the “CRF2R Emax %” value turned out to be 100%.

A further assay has as its target T2, corticotropin releasing factor 2 …. In words: cell-based or functional assay.
Regarding B5, the “CRF2R EC50” value worked out at 16.7 nM and the “CRF2R Emax %” value was determined as 100%.

Regarding B6, the “CRF2R EC50” value is 16.8 nM and the “CRF2R Emax %” value was 100%.

Regarding B7, the “CRF2R EC50” value stood at 13.2 nM and the “CRF2R Emax %” value was determined as 100%.

In the case of B8, the “CRF2R EC50” value was 18.8 nM and the “CRF2R Emax %” value amounted to 100%.

For B9, the “CRF2R EC50” value is 38.8 nM and the “CRF2R Emax %” value came out at 100%.

Take B10: the “CRF2R EC50” value came out at 8.1 nM and the “CRF2R Emax %” value was 100%.

B11: the “CRF2R EC50” value amounted to 19.7 nM and the “CRF2R Emax %” value came out at 100%.

For the molecule B12, the “CRF2R EC50” value came to 7 nM and the “CRF2R Emax %” value is 100%.

On to B13, for which the “CRF2R EC50” value was 41.8 nM and the “CRF2R Emax %” value is 86%.

For the molecule B14, the “CRF2R EC50” value is 25.7 nM and the “CRF2R Emax %” value turned out to be 100%.

Take B15: the “CRF2R EC50” value stood at 19.6 nM and the “CRF2R Emax %” value is 98%.

Take B16: the “CRF2R EC50” value was 29 nM and the “CRF2R Emax %” value came out at 94%.

For B17, the “CRF2R EC50” value is 45.3 nM and the “CRF2R Emax %” value came to 100%.

Regarding B18, the “CRF2R EC50” value came to 22.3 nM and the “CRF2R Emax %” value worked out at 100%.

Turning to B19, the “CRF2R EC50” value was 46.1 nM and the “CRF2R Emax %” value was 95%.

B20: the “CRF2R EC50” value was found to be 22 nM and the “CRF2R Emax %” value is 100%.

B21: the “CRF2R EC50” value amounted to 5.9 nM and the “CRF2R Emax %” value was determined as 100%.

For B22, the “CRF2R EC50” value was determined as 22.2 nM and the “CRF2R Emax %” value is 93%.

Regarding B23, the “CRF2R EC50” value came out at 7.5 nM and the “CRF2R Emax %” value was found to be 93%.

Consider B24, for which the “CRF2R EC50” value turned out to be 8.8 nM and the “CRF2R Emax %” value was 98%.

With B25, the “CRF2R EC50” value worked out at 100 nM and the “CRF2R Emax %” value was 36%.

Consider B26, for which the “CRF2R EC50” value is 12.6 nM and the “CRF2R Emax %” value was 99%.

For B27, the “CRF2R EC50” value turned out to be 12.2 nM and the “CRF2R Emax %” value stood at 92%.

Consider B28, for which the “CRF2R EC50” value is 20.6 nM and the “CRF2R Emax %” value was determined as 100%.

B29: the “CRF2R EC50” value was 11.8 nM and the “CRF2R Emax %” value was determined as 100%.

Turning to B30, the “CRF2R EC50” value is 40.4 nM and the “CRF2R Emax %” value amounted to 97%.

Another assay has as its target corticotropin releasing factor 1 receptor. In words: cell-based or functional assay. The source holds these as a separate data set.
On to B5, for which the “CRF1R EC50” value turned out to be 753 nM and the “CRF1R Emax %” value amounted to 88%.

Consider B6, for which the “CRF1R EC50” value worked out at 440 nM and the “CRF1R Emax %” value is 96%.

For B7, the “CRF1R EC50” value was 587 nM and the “CRF1R Emax %” value was determined as 80%.

On to B8, for which the “CRF1R EC50” value came to 1000 nM and the “CRF1R Emax %” value was 34%.

For B9, the “CRF1R EC50” value was 1000 nM and the “CRF1R Emax %” value was found to be 33%.

As to B10, the “CRF1R EC50” value stood at 219 nM and the “CRF1R Emax %” value came out at 100%.

For the molecule B11, the “CRF1R EC50” value worked out at 138 nM and the “CRF1R Emax %” value was 99%.

B12: the “CRF1R EC50” value turned out to be 33.3 nM and the “CRF1R Emax %” value came out at 84%.

For B13, the “CRF1R EC50” value was 1000 nM and the “CRF1R Emax %” value was found to be 42%.

For B14, the “CRF1R EC50” value came out at 806 nM and the “CRF1R Emax %” value worked out at 70%.

On to B15, for which the “CRF1R EC50” value is 1000 nM and the “CRF1R Emax %” value is 32%.

Turning to B16, the “CRF1R EC50” value was 358 nM and the “CRF1R Emax %” value worked out at 99%.

As to B17, the “CRF1R EC50” value was found to be 1000 nM and the “CRF1R Emax %” value came out at 7%.

Regarding B18, the “CRF1R EC50” value was found to be 226 nM and the “CRF1R Emax %” value worked out at 100%.

Consider B19, for which the “CRF1R EC50” value turned out to be 1000 nM and the “CRF1R Emax %” value was found to be 11%.

As for B20, the “CRF1R EC50” value is 915 nM and the “CRF1R Emax %” value worked out at 80%.

As to B21, the “CRF1R EC50” value was determined as 94 nM and the “CRF1R Emax %” value was 100%.

Turning to B22, the “CRF1R EC50” value turned out to be 1000 nM and the “CRF1R Emax %” value is 18%.

For the molecule B23, the “CRF1R EC50” value was 381 nM and the “CRF1R Emax %” value was 100%.

As to B24, the “CRF1R EC50” value was found to be 300 nM and the “CRF1R Emax %” value is 100%.

As to B25, the “CRF1R EC50” value was determined as 708 nM and the “CRF1R Emax %” value was determined as 6%.

Regarding B26, the “CRF1R EC50” value is 308 nM and the “CRF1R Emax %” value stood at 99%.

As for B27, the “CRF1R EC50” value was determined as 1000 nM and the “CRF1R Emax %” value turned out to be 50%.

Consider B28, for which the “CRF1R EC50” value was 434 nM and the “CRF1R Emax %” value was 96%.

As for B29, the “CRF1R EC50” value came to 926 nM and the “CRF1R Emax %” value came to 80%.

Turning to B30, the “CRF1R EC50” value is 1000 nM and the “CRF1R Emax %” value amounted to 15%.
